Measurements taken from publication PMC8354326.

Columns and labels:
PGT145 = assay: ELISA; conditions: parent: 1.0
2G12 = assay: ELISA; conditions: parent: 1.0

Substance AMC008 SOSIP.v4.2 Env trimer D620N has a ratio to parent (PGT145) of 1.5 and a ratio to parent (2G12) of 0.9.
For AMC008 SOSIP.v4.2 Env trimer E662A, the ratio to parent (PGT145) was 1.1 and the ratio to parent (2G12) was 0.9.
AMC008 SOSIP.v4.2 Env trimer K232T showed a ratio to parent (PGT145) of 1 and a ratio to parent (2G12) of 0.9.
Substance “AMC008 SOSIP.v4.2 Env trimer K232T; K236T” has a ratio to parent (PGT145) of 0.9 and a ratio to parent (2G12) of 0.9.
In the case of AMC008 SOSIP.v4.2 Env trimer K236T, the ratio to parent (PGT145) is reported as 1 and the ratio to parent (2G12) is reported as 0.9.
Work on AMC008 SOSIP.v4.2 Env trimer N88Q yielded a ratio to parent (PGT145) of 0.8 and a ratio to parent (2G12) of 0.8.
AMC008 SOSIP.v4.2 Env trimer N611Q was tested, and the ratio to parent (PGT145) was 0.8 and the ratio to parent (2G12) was 0.8.
AMC008 SOSIP.v4.2 Env trimer N616Q showed a ratio to parent (PGT145) of 0.9 and a ratio to parent (2G12) of 0.9.
AMC008 SOSIP.v4.2 Env trimer N624D gave a ratio to parent (PGT145) of 0.9 and a ratio to parent (2G12) of 0.8.
AMC008 SOSIP.v4.2 Env trimer N637Q gave a ratio to parent (PGT145) of 0.8 and a ratio to parent (2G12) of 0.9.
